Measurements from patent US11518805B2, “Binding inhibitor between TCTP dimer type IgE-dependent histamine releasing factor and receptor thereof, and use thereof” (EWHA UNIVERSITY—INDUSTRY COLLABORATION FOUNDATION, priority 2014, dated 2022).
“Also recorded” adds a separate entry of the source.

What was measured:
[1] = molecular target: T1, Del-N11dTCTP (Rattus norvegicus, UniProt P63029); assay: Inhibition of Del-N11dTCTP-mediated IL-8 secretion by polyclonal antibody recognizing C-terminus domain in BEAS-2B cells; format: cell-based; conditions: Del-N11dTCTP 1 μg/mL, 20 hours
T1 construct: made in house
T1 sequence (P63029 11-172 limits assumed): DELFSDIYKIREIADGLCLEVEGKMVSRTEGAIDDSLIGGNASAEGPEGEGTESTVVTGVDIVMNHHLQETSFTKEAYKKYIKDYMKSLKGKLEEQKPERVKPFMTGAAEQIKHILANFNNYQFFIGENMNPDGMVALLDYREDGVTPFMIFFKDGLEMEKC
Method: BEAS-2B cells were treated with the antibody recognizing C-terminus domain constructed in Example 8 in order to investigate whether or not the antibody could inhibit the Del-N11dTCTP-mediated IL-8 secretion.
Particularly, BEAS-2B cells were treated with Del-N11dTCTP (1 μg/mL) by the same manner as described in Experimental Example 4. At this time, the antibody diluted in PBS at the concentration of 40 nM was mixed with 1 μg/mL of Del-N11dTCTP at room temperature, followed by reaction for 10 minutes. The reaction mixture was treated to the cells above. 20 hours later, the supernatant was obtained and the separated IL-8 therein was quantified by ELISA.

[2] = tested on: dTBP2 (dTCTP binding peptide 2); assay: Affinity of TCTP proteins to immobilized biotinylated dTBP2 (ELISA); conditions: biotinylated dTBP2 0.01-10 μm on streptavidin plate; protein 0.2 μg/ml; ELISA 450/570 nm
Method: To investigate the affinity to dTBP2 of f-TCTP, Δ-dTCTP, and Del-N11dTCTP of the present invention, biotin was conjugated to the COOH-terminus of dTBP2 known to bind to HRF, followed by purification. The purified protein was immobilized in the plastic well coated with streptavidin, to which f-TCTP, Δ-dTCTP, and Del-N11dTCTP were added. Then, the binding strength of each protein was investigated.
Particularly, 50 ? of the biotinylated dTBTP2 dissolved in a buffer (TBS [25 mM Tris, 150 mM NaCl, pH 7.2], 0.1% BSA, 0.05% Tween-20) at different concentrations of 0.01, 0.1, 1, and 10 μm was added to Reacti-Bind Streptavidin Coated Polystyrene Plates (PIERCE), followed by reaction at room temperature for 2 hours. The plate was washed with a washing buffer three times. Each of f-TCTP, Δ-dTCTP, and Del-N11dTCTP was dissolved in TBS at the concentration of 0.2 μg/ ? . 60 ? of the mixture was added to each well of the plate, followed by reaction for 1 hour. The plate was washed with a washing buffer three times. 100 ? of anti-HRF rabbit antibody (Bio-Rad) diluted in a buffer (1:2000) was added to each well of the plate, which stood at room temperature for 30 minutes. The plate was washed with a washing buffer three times and with TBS once, to which HRP-conjugated anti-rabbit antibody (1:2000) was added (100 ? /well), which stood at room temperature for 30 minutes. The plate was washed with a washing buffer three times and with TBS once, to which […] (PIERCE), the peroxydase substrate solution, was added (100 ? /well). Color development was measured at 450 nm and 570 nm using an ELISA reader (Bio-Rad), and affinity was determined by the difference.

[3] = tested on: BEAS-2B cells; assay: IL-8 secretion by f-TCTP, Δ-dTCTP and Del-N11dTCTP in BEAS-2B cells; format: cell-based; conditions: protein at 1, 5 or 10 μg/ml, 24 hours, ELISA
Method: (§1) To investigate the IL-8 and GM-CSF secretory activity of f-TCTP, Δ-dTCTP, and Del-N11dTCTP in BEAS-2B cells, the present inventors compared the activity of f-TCTP, Δ-dTCTP, and Del-N11dTCTP by measuring the secretion of IL-8 in BEAS-2B cells.
(§2) Particularly, BEAS-2B cells were cultured in a 48-well plate until the confluency reached to 70%. Then, the cells were washed with 1% penicillin-streptomycin/BEBM (Clonetics) twice. Each recombinant protein of the Δ-dTCTP separated in Example 1 of the invention, and the f-TCTP and Del-N11dTCTP constructed by the method described in Korean Patent Application No. 2006-0007663 was added thereto at the concentration of 1 μg/ ? , 5 μg/ ? , or 10 μg/ ? 24 hours later, the supernatant was obtained and the released IL-8 and GM-CSF were quantified by ELISA.

[4] = tested on: BEAS-2B cells; assay: GM-CSF secretion by f-TCTP, Δ-dTCTP and Del-N11dTCTP in BEAS-2B cells; format: cell-based; conditions: protein at 1, 5 or 10 μg/ml, 24 hours, ELISA
Method: as §1, §2

[5] = molecular target: T1, Del-N11dTCTP; assay: Inhibition of Del-N11dTCTP-mediated IL-8 secretion by polyclonal antibodies recognizing FL and H2 domains in BEAS-2B cells; format: cell-based; parameters: dose or concentration left out as unconfirmed; conditions: 20 hours
Method: The inhibitory effect on Del-N11dTCTP-mediated IL-8 secretion by the antibody recognizing FL and H2 domains constructed in Example 6 of the invention was investigated by treating the antibody to BEAS-2B cells.
Particularly, BEAS-2B cells were treated with anti-FL antibody and ani-H2 antibody at different concentrations. Then, Del-N11dTCTP-induced IL-8 secretion was compared. The BEAS-2B cells cultured in a 48-well plate were washed with 1% penicillin-streptomycin/BEBM (Lonza) twice, followed by serum starvation for 7 hours. The antibody diluted in PBS at the concentrations of 1 and 10 ng/ml was reacted with 70 μM Del-N11dTCTP at 37° C. for 2 hours. The reaction mixture was treated to the cells above. 20 hours later, the supernatant was obtained and the released IL-8 therein was quantified by ELISA.

B1: Del-N11dTCTP: dimer form of amino terminal-deleted TCTP, active HRF form (protein, UniProt P13693 12-172, looked up, fragment)
chain: EMFSDIYKIREIADGLCLEVEGKMVSRTEGNIDDSLIGGNASAEGPEGEGTESTVITGVDIVMNHHLQETSFTKEAYKKYIKDYMKSIKGKLEEQRPERVKPFMTGAAEQIKHILANFKNYQFFIGENMNPDGMVALLDYREDGVTPYMIFFKDGLEMEKC
modifications: dimer
Question: Which “IL-8 secretion, PBS together with Del-N11dTCTP” value [1] does the source give for B1 here?
Answer: Its value is “increased”.

Question: What about the “affinity to dTBP2” value [2] of the same molecule?
Answer: Its value is “higher affinity to dTBP2 than f-TCTP or Δ-dTCTP; also recorded: higher dTBP2 affinity than f-TCTP and Δ-dTCTP”.

Question: And the “secretion of IL-8” value [3]?
Answer: Its value is “more than f-TCTP and Δ-dTCTP could do; also recorded: superior to f-TCTP and Δ-dTCTP”.

Question: What about the “secretion of GM-CSF” value [4] of the same molecule?
Answer: The value was “more than f-TCTP and Δ-dTCTP could do; also recorded: superior to f-TCTP and Δ-dTCTP”.

Question: What about the “IL-8 secretion, Del-N11dTCTP alone” value [5] of the same molecule?
Answer: The value was “increased”.
